Experimental data taken from PMC7335073, “Comprehensive structure-function characterization of DNMT3B and DNMT3A reveals distinctive de novo DNA methylation mechanisms” (Nature Communications, 2020).

Target: the molecule itself
Experiment: crystal structure; covalent DNMT3B–DNMT3L–DNA complexes (25-mer Zebularine DNA: CGA, CGT or CAG) with SAH; proteins co-expressed in E. coli and purified as a complex; hanging-drop vapor diffusion, 0.1 M Tris-HCl pH 8.0, MgCl2, PEG, 0.2 mM AdoHcy, 4 °C or 16 °C

Row | Protein | binding result
1 | MTase domain of human DNMT3B (residues 562–853) (domain or fragment, UniProt Q9UBC3-1 562-853, looked up, catalytic cysteine C651 covalently linked to the Zebularine of the DNA, Two copies stand in the DNMT3L–DNMT3B–DNMT3B–DNMT3L heterotetramer; also called hDNMT3B; WT DNMT3B; source: E. coli BL21 DE3 (RIL), co-expressed with DNMT3L, purified (Ni-NTA, Heparin HP, SEC; after DNA cross-linking HiTrap Q XL, SEC); not shown: His6, N-terminal, cleaved; SUMO, N-terminal, cleaved) KLYPAIPAARRRPIRVLSLFDGIATGYLVLKELGIKVGKYVASEVCEESIAVGTVKHEGNIKYVNDVRNITKKNIEEWGPFDLVIGGSPCNDLSNVNPARKGLYEGTGRLFFEFYHLLNYSRPKEGDDRPFFWMFENVVAMKVGDKRDISRFLECNPVMIDAIKVSAAHRARYFWGNLPGMNRPVIASKNDKLELQDCLEYNRIAKLKKVQTITTKSNSIKQGKNQLFPVVMNGKEDVLWCTELERIFGFPVHYTDVSNMGRGARQKLLGRSWSVPVIRHLFAPLKDYFACE | binds
2 | K777A-mutated MTase domain of human DNMT3B (residues 562–853) (domain or fragment, UniProt Q9UBC3-1 562-853, looked up, catalytic cysteine C651 covalently linked to the Zebularine of the DNA, also called K777A DNMT3B; source: E. coli BL21 DE3 (RIL), co-expressed with DNMT3L, purified (Ni-NTA, Heparin HP, SEC; after DNA cross-linking HiTrap Q XL, SEC); not shown: His6, N-terminal, cleaved; SUMO, N-terminal, cleaved) KLYPAIPAARRRPIRVLSLFDGIATGYLVLKELGIKVGKYVASEVCEESIAVGTVKHEGNIKYVNDVRNITKKNIEEWGPFDLVIGGSPCNDLSNVNPARKGLYEGTGRLFFEFYHLLNYSRPKEGDDRPFFWMFENVVAMKVGDKRDISRFLECNPVMIDAIKVSAAHRARYFWGNLPGMNRPVIASKNDKLELQDCLEYNRIAKLKKVQTITTASNSIKQGKNQLFPVVMNGKEDVLWCTELERIFGFPVHYTDVSNMGRGARQKLLGRSWSVPVIRHLFAPLKDYFACE | binds
